Test results taken from the nanobody polyreactivity screen of Harvey et al. (2022).

Assay: yeast display, Sf9 membrane polyspecificity reagent, FACS + sequencing; frameworks hold sequencing errors
Procedure, shortened: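 Genes from sorted yeast were amplified by colony PCR, read by MiSeq 2 × 250 sequencing and filtered on CDR length. These cells carried a synthetic nanobody library in Saccharomyces cerevisiae BJ5465 and were sorted by FACS into low and high (top ~1%) gates on anti-HA and streptavidin fluorescence. Polyreactivity is labelled according to the gate of origin.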
In the case of “QVQLVESGGGLVQAGGSLRLSCAASGSIFGYAMGWYRQAPGKERELVAAIRWGGGSTYYADSVKGRFTISRDNAKYNVYLQMNSLKPEDTAVYYCAARVGRQWYDYWGQGTQVTVSS”, the “polyreactivity (PSR sort gate)” value is reported as “high polyreactivity”. For “QVQLVESGGGLVQAGGSLRLSCAASGFIFDYNAMGWYRQAPGKERELVDAISGGGGSTYYADSVKGRFTISRDNAKNTVFLLMNSLKPEDTSVYDCAKRYRGGYWGQGSQVTVSS”, the “polyreactivity (PSR sort gate)” value was “high polyreactivity”. For “QVQLVESGGGLVQAGGSLRLSCAASGSIFALYTMGWYRPAPGKERELVAAISRRGGNTYYADSVKGRFTISRDNAKNTVYLQMNSLKPEDTAVYYCNADRLRSTHDYWGQGTQVTVSS”, the “polyreactivity (PSR sort gate)” value was “high polyreactivity”. With “QDLLVESGGGLVQAGGSLRLSCAASGSIFDDYAMGWYRQAPGKERELVAAISSSGTSTYYADSVKGRFTISRDHAKNTVYLQMNSLIPEYTAVYYCAARSAILKSGYLKDYWGQGTQVTVSS” the “polyreactivity (PSR sort gate)” value was “low polyreactivity”. For “QVQLVESGGGLVQAGGSLRLSCAASGSIFIHYAMGWYRQAPGKERELVAAISRTGSTYYADSVKGRFTISRDNAKNTVYLQMNSLKPEDTAVYYCAKRISTRRYDYWGQGTQVTVSS”, the “polyreactivity (PSR sort gate)” value was “low polyreactivity”. In the case of “QVQLVESGGCLVQAGGSLRLSCSASGSIFNYNDMGWYRQAPGKERELVAAIDSSGTSTYYADSVKGRYTISRDNSKNNVYLQMTSLKPEDTAVYYCNADSSLGFGYWGQGTQVTVSS”, the “polyreactivity (PSR sort gate)” value is reported as “low polyreactivity”. With “QVQLVESGGGLVQAGGSLRLSCAASGRTFVSYAMGWYRQAPGKERELVAAIRWGTGSRTYYADSVKGRFTISRDNAKNTVYLQMNSLKPEDTAVYYCAKTDWYPYGYWGQGTQVTVSS” the “polyreactivity (PSR sort gate)” value was “low polyreactivity”. With “QVQLVESGGGLVQAGGSLRLSCAASGFIFVYYAMGWYRQAPGKERELVAAITSDVNTYYADSVKGRFSISRDNAKNTVYLHMNSLKPEDTAVDYCNADADDYRDYQDYDYWGQGSQVTVSS” the “polyreactivity (PSR sort gate)” value was “low polyreactivity”. For “QLQLVESGGGLVQAGGSLRLSCAASGSTFPTNAMGWYRQAPGKERELVARISWDGGRTNYADSVKGRFTISRDNAKNTVYLQMNSLKPEDTAVYYCAAEKQHFGPYGYWGQGTQVTVSS”, the “polyreactivity (PSR sort gate)” value was “low polyreactivity”. With “QVQLVESGGGLVQAGGSLRLSCAASGSIFAVNAMGWYRQAPGKERELVAAIDWSDGITYYADSVKGRFTISRDNAKNTVYLQMNSLKPEDTAVYYCAADATAYGWYVEQFSFYDNDYWGQGTEVTVSS” the “polyreactivity (PSR sort gate)” value was “high polyreactivity”. In the case of “QVQLVESGGGLVQAGGSLRLSFAASGFTFGWYAMGWYRQAPGKGRELVAAISGGDSRTYADSVKGRFTISRDNAKNTVYLQMNSLKPADTAVYYCNAENRQLYWWTVARSHYGYWGQGTQVTVSS”, the “polyreactivity (PSR sort gate)” value is reported as “low polyreactivity”. With “QVQLVESGGGLVQAGGSLRLSSAASGFTFYRNPMGWYRQAPGKERELVAAITRSGTSTYYADSVKGRFTISRDNAKNSVYLQKNSLKPEDTAVYYCNTVGYRGRSNSRFYYWGQGTQVTVSS” the “polyreactivity (PSR sort gate)” value was “high polyreactivity”. With “QVQLVESGGGLVQAGGSLRLSCAASGRTFWYYAMGGYRQAPGKERELVAYADSVKGRFTISRDNAKNTVYLQMNSLKPEDTAVYYCAVGPVVWFSSSLYYTDYYYWGQGTQVTVSS” the “polyreactivity (PSR sort gate)” value was “low polyreactivity”. With “QVQLVESGGGLVQAGGSLRLSCAASGFTFKLYAMGWYRQAPGNEREWVAAIRRGGTTNYADSVKGRFTISRDTAKNTVYLQMNSLKPEDTAVYYCAADGWYPGVYYPYTEFDYWGQGTQVTVSS” the “polyreactivity (PSR sort gate)” value was “high polyreactivity”. With “QVQLVESRGGLVQAGGSLRLSCAASGFIFYWNAMGWYRQAPGKEREFVATITWSGGSTYYADSVKGRFTISRDNAKNTVYLQMNSLKPEDTAVYYCNADVTWEDDYCGQGTQVTVSS” the “polyreactivity (PSR sort gate)” value was “low polyreactivity”. For “QVQLVESGGGLVQAGGSLRLSCAASGSTFGYYAMGWYRQAPGKERELVAAISYNTGSTYYADSVKGRFTISRDNAKNTVYLQMNSLKPEDTAVFYCAASRSRYSVNWYNYWGQGTQVTVSS”, the “polyreactivity (PSR sort gate)” value was “high polyreactivity”. In the case of “QVQLVESGGGLVQAGGSLRLSCAASGRTFFVNAMGWYRQAPGKERELVAGITRTGGTTYYADSVKGRFTISRDNAKNTVYLQMNSLKPEDTAVYYCAATPGGTDLGGGYYGFDYWGQGTQVTVSS”, the “polyreactivity (PSR sort gate)” value is reported as “low polyreactivity”. In the case of “QVQLVESGGGLVQAGGSLRLSCAASGRIFFTNAMGWYRQAPGKERELVAAITSTGSRTYYADSVKGRFTISRDNAKNTVYLQMNSLKPEDTAVYYCNRVSHLDYYWGQGTQVTVSS”, the “polyreactivity (PSR sort gate)” value is reported as “high polyreactivity”. With “QVQLVESGGGLVQAGGSLRISSAASALIIYDNMGRYRQAPGKERELVAAISSSGGSTSYADSVKGRFTFSRDNANNTVYLQMNSLKPEDTAVYYSAADSYPAYLGFVGFDYWGQGTQVTVSS” the “polyreactivity (PSR sort gate)” value was “low polyreactivity”. With “QGQLVESGGGLVQAGGSLRLSCAASGSTFRYNTMGWYRQAPGKERELVAAISSGGGTHYADSVKGRFTISRDNAKNTVYLQMNSLKPEDTAVYYCAAQSRYRYQFYSGLEYDYWGQGTQVTVSS” the “polyreactivity (PSR sort gate)” value was “low polyreactivity”. With “QVQLEESGGGLVQAGGSLRLSCAASGSIFVSVTMGWYRQAPGKERELVASIGRGSTTNHADSVKGRFTISRDNAKNIVYLLMNSLKPEDTAVYYCAALESYGKYHGYWGQGTQVTVSS” the “polyreactivity (PSR sort gate)” value was “low polyreactivity”. For “QVQLVESGGGLVQAGGSLRLSCAASGFIFSCYAMGWYRQAPGKERELFAAISSSGVSTYYADSVKGRFTISRDNAKNTVYLHMNSLKPEDTAVNYCNAYGSVWDRGEYDYEYWGQGTQVTVSS”, the “polyreactivity (PSR sort gate)” value was “low polyreactivity”. For “QVQLVESGGGLVQAGGSLRLSCAASGRIFGNYAMGWYRQAPGKERELVAAISGGGSTYYADSVKGRFTISRDNAKNTVYLQLNSLKPEDTAVYYCAARFLWSVFGGKGGYWGQGTQVTVSS”, the “polyreactivity (PSR sort gate)” value was “low polyreactivity”. With “QVHLVQSGGGIDQAGGSLRLSCAASGSTYVVNTMGWYRQAPGKDRELVAANTQSGGSTFYADSVKGRFTISRDNAKNTVYLHMTSLKAEDTAVYYCNAGDFEGAVVVFIQHGGYYWGQGTQVTVSS” the “polyreactivity (PSR sort gate)” value was “low polyreactivity”. In the case of “QVQLVESGGGLVQAGGSLRLSCAASGRIFSPYAMGWYRQAPGKERELVASIRGSGGSTYYADSVKGPFTISRDNAKNTVYLQMNRLKPEDTAVYYCNARNNYRFLSFGYWGQGTQVTVSS”, the “polyreactivity (PSR sort gate)” value is reported as “high polyreactivity”. With “QVQLVESGGGLVQAGGSLRLSCAASGSTFDTNAMGWYRQAPGKERELVAAISASGGSTYYADSVKGRFTISRDNAKNTVYLQMNSLKPEDTAVYYCAATSGRAFKYDYWGQGTQVTVSS” the “polyreactivity (PSR sort gate)” value was “high polyreactivity”. For “QVQLVESGGGLVQAGGSLRLSCAASGSIFGVNVMGWYRQAPGKERELVASISGGGSTDYADSVKGRFTISRDNAKNTVYLQMNSLKPEDTAVYYCNAKYWWSNYYWGQGTQVTVSS”, the “polyreactivity (PSR sort gate)” value was “low polyreactivity”. In the case of “QVKLVESGGGLVQAGGSLRLSCAASGLIFIGYAMGWYRPAPGKEMELVASIRGVGSTNYADSVKGRFTISRDNAKNTVYLQMNSLKPEDTAVYYCPNSVDRALYTQTRGDYDYWGQGTQVTVSS”, the “polyreactivity (PSR sort gate)” value is reported as “low polyreactivity”. In the case of “QVQLVESGGGLVQAGGSLRLSCAASGNTFTYYAMGWYRQAPGKERELVAAISSGGRTYYADSVKGRFTISRDNAKNTVYLQMNSLKPEDTAVYYCAARIKYGYPGPRYYYWGQGTQVTVSS”, the “polyreactivity (PSR sort gate)” value is reported as “high polyreactivity”. For “QVQLVESGGGLVQAGGSLRLSCAASGLIFAHYAMGWYRQAPGTERELVAGITSGGSTNYADSVKGRFTISRDNAKNTVYLQMNSLKPEDTAVYYCNADRAGFLGFYLYDYWGQGTQVTVSS”, the “polyreactivity (PSR sort gate)” value was “low polyreactivity”. With “QVQLVESGGGLVQAGGSLRLSCSASGLTFTKYAMGWYRQAPGKEREFVATITSGGSTNYADSVKGRFTISRDNAKNTVYLQMNSLKPEDTAVYYCNRDNYKWPYWEFDYWGQGTQVTVSS” the “polyreactivity (PSR sort gate)” value was “high polyreactivity”. With “QVQLVESGGGIVQAGGSLRLSCAASGFTIWKYAMGLYRQAPGKERELVAAISVSGGRTNYADSVKGRFTISGDNAKNTVYLQMNSLKPEDTAVYYCIATPWRPYVGGEYWGQGTHVTVSS” the “polyreactivity (PSR sort gate)” value was “high polyreactivity”. In the case of “QVQLVESGGGLVQAGGSLRLSCAASGRIFVYNAMGWYRQAPGKEREFVATITSSGGRTYYADSVKGRFTISRDNAKNTVYLQMNSLKPEDTAVYYCAARPQNNGRNPVYRYNYWGQGTQVTVSS”, the “polyreactivity (PSR sort gate)” value is reported as “high polyreactivity”. In the case of “QVQLVESGGGLVQAGGSLRLSCAASGSTFITYVMGWYRQAPGKERELVAAISRSGGTTYYADSVKGRFTISRDNAKNTVYLQMNCLKPEDTAVYYCAARIGGQVQKTARGSWGQGTQVTVSS”, the “polyreactivity (PSR sort gate)” value is reported as “high polyreactivity”. In the case of “QVQLVESGGGLVQAGGSLRLSCAASGRTFKKYAMGWYRQAPGKERELVAAITGSGGSTYYADSVKVRYTISRDNAKNTVYLQMNSLKPEDTAVYYCAAYAYGVGHSQDGGNYWGQCTQVTVSS”, the “polyreactivity (PSR sort gate)” value is reported as “low polyreactivity”. For “QVQLVESGGGLVQAGGSLRLSCAASGRIFDYYAMGWYRQAPGKERELVARITSGGTTNYADSVKGRFTISRDNAKNPVYLQMNSLKPEDTAVYYCAADVYGTVRRVGWYYVGEGYDYWGQGTQVTVSS”, the “polyreactivity (PSR sort gate)” value was “low polyreactivity”. In the case of “QVQLVESGGGLVQAGGSLRLSCAASGLTFSKYVMGWYRQAPGKERELVAAITWSGGRTYYADSVKGRFTISRDNAKNTVYLLMNSLKPEDTAVYYCNRKLKGLGYEYDYWGQGTQVTVSS”, the “polyreactivity (PSR sort gate)” value is reported as “high polyreactivity”. For “QVQLVESGGGLDQAGGSLRLSCAASGSTFVYNVMGWYRQAPGKERELVAAITSGVRTYYADSEKGRFTISRDNAKNTGYLQMNSLKPEDTAVYYCATGWRNAKYYYWGQGTQVNVSS”, the “polyreactivity (PSR sort gate)” value was “high polyreactivity”. In the case of “QVQLVESGGGLVQAGGSLRLSSAASGSTFSYYAMGWYRQAPGKDRELVAAITSSGGSTYYADSVKGRFTISRDNAKNTVYLEMNSLKPEDTEVYYCNTAYHVPYDYWGQGTQVTVSS”, the “polyreactivity (PSR sort gate)” value is reported as “low polyreactivity”. For “QVQLVESGGGLVQAGGSLRLSCAGSGFTFIIYAMGWYREAPGKERELVAAITRSGGSTYYADSVKGRFTISRDNAKNTVYLQMNSLKPEDTAVYYCAAALSVRFYFWGQGTQVTVSS”, the “polyreactivity (PSR sort gate)” value was “high polyreactivity”. For “QVQLVESGGGLVQAGGSLRLSCAASGSTFDGNAMGWNRQAPGKERELVAAITRAGRTSYADSVKGRFTISRDNAKNTVYLQMNCLKPEDTAVFYCAKGGYDYWGQGTQVTVSS”, the “polyreactivity (PSR sort gate)” value was “low polyreactivity”.
